Data from paper PMC6826779, “Bis-allylic Deuterated DHA Alleviates Oxidative Stress in Retinal Epithelial Cells” (Antioxidants, 2019).

Legend:
[1] = substrate: CCC=CCC=CCC=CCC=CCC=CCC=CCCC(=O)O; assay: Kinetics parameters of 15s-LOX (UV 270 nm, Michaelis-Menten); type: biochemical, Glycine max (soybean); conditions: other: 15s-LOX, substrate 0.02-0.2 mM, borate buffer pH 9, 20 °C
Description: (§1) The activity of 15-sLOX was monitored on a Beckman Coulter DU730 Life Sciences UV-visible spectrometer at a wavelength of 270 nm monitoring the conjugated triene structure in the dihydroxylation products. For the measurements a reaction mixture of DHA or deuterated DHA (0.02 mM; 0.04 mM; 0.1 mM and 0.2 mM) was prepared in 750 µL sodium borate buffer (50 mM, pH 9) by ultrasonification for 10 s. The reaction was subsequently initiated by the addition of 10 µL 15-sLOX (4 mg/mL) to make a total volume of 760 µL in a Hellma CEL2056 quartz cuvette with 1 cm path length (20 °C). The initial reaction rates (V(0)), derived from the recorded UV-absorbance using the law of Lambert-Beer (molar extinction coefficient = 40,000), were plotted against the respective DHA concentrations and fitted to Michaelis-Menten kinetics in GraphPad Prism 7.0. All V(0) values were determined in triplicate and the average of three independent experiments was plotted against the substrate concentrations to yield Michaelis-Menten kinetics.

[2] = substrate: CC/C=C\C/C=C\C/C=C\C/C=C\C/C=C\C/C=C\CCC(=O)O; assay: as above; type: biochemical, Glycine max (soybean); conditions: other: 15s-LOX, substrate 0.02-0.2 mM, borate buffer pH 9, 20 °C
Description: as §1

B1: 15-sLOX (Glycine max) (protein)
chain: MFSAGHKIKGTVVLMPKNELEVNPDGSAVDNLNAFLGRSVSLQLISATKADAHGKGKVGKDTFLEGINTSLPTLGAGESAFNIHFEWDGSMGIPGAFYIKNYMQVEFFLKSLTLEAISNQGTIRFVCNSWVYNTKLYKSVRIFFANHTYVPSETPAPLVSYREEELKSLRGNGTGERKEYDRIYDYDVYNDLGNPDKSEKLARPVLGGSSTFPYPRRGRTGRGPTVTDPNTEKQGEVFYVPRDENLGHLKSKDALEIGTKSLSQIVQPAFESAFDLKSTPIEFHSFQDVHDLYEGGIKLPRDVISTIIPLPVIKELYRTDGQHILKFPQPHVVQVSQSAWMTDEEFAREMIAGVNPCVIRGLEEFPPKSNLDPAIYGDQSSKITADSLDLDGYTMDEALGSRRLFMLDYHDIFMPYVRQINQLNSAKTYATRTILFLREDGTLKPVAIELSLPHSAGDLSAAVSQVVLPAKEGVESTIWLLAKAYVIVNDSCYHQLMSHWLNTHAAMEPFVIATHRHLSVLHPIYKLLTPHYRNNMNINALARQSLINANGIIETTFLPSKYSVEMSSAVYKNWVFTDQALPADLIKRGVAIKDPSTPHGVRLLIEDYPYAADGLEIWAAIKTWVQEYVPLYYARDDDVKNDSELQHWWKEAVEKGHGDLKDKPWWPKLQTLEDLVEVCLIIIWIASALHAAVNFGQYPYGGLIMNRPTASRRLLPEKGTPEYEEMINNHEKAYLRTITSKLPTLISLSVIEILSTHASDEVYLGQRDNPHWTSDSKALQAFQKFGNKLKEIEEKLVRRNNDPSLQGNRLGPVQLPYTLLYPSSEEGLTFRGIPNSISI
Km [1]: 57.4 µM
Km ([2]; substrate D2-DHA): 36.3 µM
Km ([2]; substrate Natural DHA): 68 µM
